In publication doi:10.1101/466904v1:

B1: Axe2 (Geobacillus stearothermophilus) (protein)
chain: MKIGSGEKLLFIGDSITDCGRARPEGEGSFGALGTGYVAYVVGLLQAVYPELGIRVVNKGISGNTVRDLKARWEEDVIAQKPDWVSIMIGINDVWRQYDLPFMKEKHVYLDEYEATLRSLVLETKPLVKGIILMTPFYIEGNEQDPMRRTMDQYGRVVKQIAEETNSLFVDTQAAFNEVLKTLYPAALAWDRVHPSVAGHMILARAFLREIGFEWVRSR
B2: Axe2 (Geobacillus stearothermophilus; W190I) (protein)
chain: MKIGSGEKLLFIGDSITDCGRARPEGEGSFGALGTGYVAYVVGLLQAVYPELGIRVVNKGISGNTVRDLKARWEEDVIAQKPDWVSIMIGINDVWRQYDLPFMKEKHVYLDEYEATLRSLVLETKPLVKGIILMTPFYIEGNEQDPMRRTMDQYGRVVKQIAEETNSLFVDTQAAFNEVLKTLYPAALAIDRVHPSVAGHMILARAFLREIGFEWVRSR
B3: Axe2 (Geobacillus stearothermophilus; R55A) (protein)
chain: MKIGSGEKLLFIGDSITDCGRARPEGEGSFGALGTGYVAYVVGLLQAVYPELGIAVVNKGISGNTVRDLKARWEEDVIAQKPDWVSIMIGINDVWRQYDLPFMKEKHVYLDEYEATLRSLVLETKPLVKGIILMTPFYIEGNEQDPMRRTMDQYGRVVKQIAEETNSLFVDTQAAFNEVLKTLYPAALAWDRVHPSVAGHMILARAFLREIGFEWVRSR
B4: Axe2 (Geobacillus stearothermophilus; R55E) (protein)
chain: MKIGSGEKLLFIGDSITDCGRARPEGEGSFGALGTGYVAYVVGLLQAVYPELGIEVVNKGISGNTVRDLKARWEEDVIAQKPDWVSIMIGINDVWRQYDLPFMKEKHVYLDEYEATLRSLVLETKPLVKGIILMTPFYIEGNEQDPMRRTMDQYGRVVKQIAEETNSLFVDTQAAFNEVLKTLYPAALAWDRVHPSVAGHMILARAFLREIGFEWVRSR
B5: Axe2 (Geobacillus stearothermophilus; Y184N) (protein)
chain: MKIGSGEKLLFIGDSITDCGRARPEGEGSFGALGTGYVAYVVGLLQAVYPELGIRVVNKGISGNTVRDLKARWEEDVIAQKPDWVSIMIGINDVWRQYDLPFMKEKHVYLDEYEATLRSLVLETKPLVKGIILMTPFYIEGNEQDPMRRTMDQYGRVVKQIAEETNSLFVDTQAAFNEVLKTLNPAALAWDRVHPSVAGHMILARAFLREIGFEWVRSR
B6: Axe2 (Geobacillus stearothermophilus; R205A/W215A/Y184F) (protein)
chain: MKIGSGEKLLFIGDSITDCGRARPEGEGSFGALGTGYVAYVVGLLQAVYPELGIRVVNKGISGNTVRDLKARWEEDVIAQKPDWVSIMIGINDVWRQYDLPFMKEKHVYLDEYEATLRSLVLETKPLVKGIILMTPFYIEGNEQDPMRRTMDQYGRVVKQIAEETNSLFVDTQAAFNEVLKTLFPAALAWDRVHPSVAGHMILAAAFLREIGFEAVRSR
B7: Axe2 (Geobacillus stearothermophilus; W190P/Y184F) (protein)
chain: MKIGSGEKLLFIGDSITDCGRARPEGEGSFGALGTGYVAYVVGLLQAVYPELGIRVVNKGISGNTVRDLKARWEEDVIAQKPDWVSIMIGINDVWRQYDLPFMKEKHVYLDEYEATLRSLVLETKPLVKGIILMTPFYIEGNEQDPMRRTMDQYGRVVKQIAEETNSLFVDTQAAFNEVLKTLFPAALAPDRVHPSVAGHMILARAFLREIGFEWVRSR
B8: Axe2 (Geobacillus stearothermophilus; Y184F) (protein)
chain: MKIGSGEKLLFIGDSITDCGRARPEGEGSFGALGTGYVAYVVGLLQAVYPELGIRVVNKGISGNTVRDLKARWEEDVIAQKPDWVSIMIGINDVWRQYDLPFMKEKHVYLDEYEATLRSLVLETKPLVKGIILMTPFYIEGNEQDPMRRTMDQYGRVVKQIAEETNSLFVDTQAAFNEVLKTLFPAALAWDRVHPSVAGHMILARAFLREIGFEWVRSR

What follows are proteins tested on CC(=O)Oc1ccc2ccccc2c1 (assay: esterase activity assay). Settings: 2-naphthyl acetate 1-20 mM in isopropanol, citrate phosphate buffer pH 7.
Format: biochemical, Geobacillus stearothermophilus
B1 showed a Km of 300 µM and a kcat of 720 s⁻¹.
Protein B2 has a Km of 700 µM and a kcat of 290 s⁻¹.
B3 showed a Km of 600 µM and a kcat of 1000 s⁻¹.
In the case of B4, the Km is reported as 500 µM and the kcat is reported as 1000 s⁻¹.
In the case of B5, the Km is reported as 1300 µM and the kcat is reported as 8.0x10^0 sec-1.
Work on B6 yielded a Km of 6700 µM and a kcat of 42 s⁻¹.
In the case of B7, the Km is reported as 3000 µM and the kcat is reported as 44 s⁻¹.
B8 gave a Km of 4600 µM and a kcat of 36 s⁻¹.
